Laboratory results taken from patent publication US5851983.
No end group written: not given here.

Target: Polymorphonuclear leukocyte elastase from human sputum (EPC Co.; Funakoshi Yakuhin) (human) (UniProt P08246)

IC50: 300 nM
B1: by-product oligomer formed in Example 17 (peptide)
chain: RKPGKCPVTYGQCLMLNPPNFCEMDGQCKRDLKCCMGMCGKSCVSPVKA
modifications: also: oligomer formed during refolding, number of chains and linkages not given here
